Legend:
Tat (wild-type) (HIV-1) = Tat (wild-type) (HIV-1) (UniProt P04608); experiment: EMSA; conditions: printed as Ka of 6.4x10^-10 M; Scatchard, one tat per TAR RNA
[1] = target: TRP-185 (cellular TAR RNA binding protein, about 185 kD) (Homo sapiens) (UniProt Q13395); experiment: EMSA
Chain of TRP-185 (cellular TAR RNA binding protein, about 185 kD) (Homo sapiens) (Q13395 whole entry): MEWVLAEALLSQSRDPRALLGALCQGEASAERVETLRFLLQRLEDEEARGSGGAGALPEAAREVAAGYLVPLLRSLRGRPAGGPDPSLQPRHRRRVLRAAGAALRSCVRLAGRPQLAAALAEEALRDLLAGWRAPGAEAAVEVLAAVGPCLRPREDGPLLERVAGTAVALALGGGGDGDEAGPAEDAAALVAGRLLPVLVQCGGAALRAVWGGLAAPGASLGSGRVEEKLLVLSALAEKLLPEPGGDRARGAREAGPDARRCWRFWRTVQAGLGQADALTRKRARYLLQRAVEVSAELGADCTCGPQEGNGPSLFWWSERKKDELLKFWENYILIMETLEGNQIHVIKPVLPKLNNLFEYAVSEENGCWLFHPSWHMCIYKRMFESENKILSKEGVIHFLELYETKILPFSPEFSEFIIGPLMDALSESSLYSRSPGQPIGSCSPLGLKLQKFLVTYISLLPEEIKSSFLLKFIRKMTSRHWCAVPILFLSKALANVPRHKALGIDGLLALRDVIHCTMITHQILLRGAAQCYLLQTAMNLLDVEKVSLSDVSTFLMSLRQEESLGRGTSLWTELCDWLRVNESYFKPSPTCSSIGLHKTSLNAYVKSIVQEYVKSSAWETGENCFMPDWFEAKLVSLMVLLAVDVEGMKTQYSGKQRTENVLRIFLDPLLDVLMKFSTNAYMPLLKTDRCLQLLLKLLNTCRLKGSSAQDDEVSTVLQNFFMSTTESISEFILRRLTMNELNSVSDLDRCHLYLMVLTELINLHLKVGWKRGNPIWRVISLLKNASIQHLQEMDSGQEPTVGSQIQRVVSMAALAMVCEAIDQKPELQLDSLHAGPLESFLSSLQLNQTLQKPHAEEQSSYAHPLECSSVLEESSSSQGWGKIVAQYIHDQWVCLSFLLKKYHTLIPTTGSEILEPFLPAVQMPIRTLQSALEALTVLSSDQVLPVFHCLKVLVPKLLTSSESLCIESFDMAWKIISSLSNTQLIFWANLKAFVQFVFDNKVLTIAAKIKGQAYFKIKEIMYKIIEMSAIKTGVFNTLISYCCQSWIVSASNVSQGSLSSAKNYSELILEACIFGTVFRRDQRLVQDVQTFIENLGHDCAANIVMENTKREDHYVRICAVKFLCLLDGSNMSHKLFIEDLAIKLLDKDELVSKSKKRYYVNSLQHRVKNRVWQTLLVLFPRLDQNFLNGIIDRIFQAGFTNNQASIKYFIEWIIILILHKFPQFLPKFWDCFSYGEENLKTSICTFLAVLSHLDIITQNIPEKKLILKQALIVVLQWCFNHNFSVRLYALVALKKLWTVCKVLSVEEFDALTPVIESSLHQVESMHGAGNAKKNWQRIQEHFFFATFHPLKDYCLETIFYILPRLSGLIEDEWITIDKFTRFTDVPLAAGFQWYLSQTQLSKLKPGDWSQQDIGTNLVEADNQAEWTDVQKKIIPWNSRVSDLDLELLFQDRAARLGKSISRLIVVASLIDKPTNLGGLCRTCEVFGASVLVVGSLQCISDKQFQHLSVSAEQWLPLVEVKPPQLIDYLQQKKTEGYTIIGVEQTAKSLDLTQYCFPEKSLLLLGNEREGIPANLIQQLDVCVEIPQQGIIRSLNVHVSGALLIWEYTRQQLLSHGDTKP

Row | Substance | Kd (Tat (wild-type) (HIV-1)) [nM] | Kd ([1]; Scatchard, cofactor fraction required with sucrose gradient TRP-185, room temperature, 50 mM KCl) [nM] | Kd ([1]; data not shown) [nM]
1 | HIV TAR RNA wild-type (+1/+80) | 0.64 | 0.315 | 
2 | nonspecific RNA |  |  | 21100

Reference: patent US5677143
